Reference: US20240029824A1 (University of Washington, published 2024)
One block for each binder: values may come before it.

How the values were obtained:
[1] = molecular target: T1, DHT08 chain B; experiment: co-expression, IMAC, SEC, native MS; chains of one ABC heterotrimer
T1 chain: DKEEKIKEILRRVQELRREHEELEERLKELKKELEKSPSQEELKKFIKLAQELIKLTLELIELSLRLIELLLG
Method in brief: (§1)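 Heterotrimer chains co-expressed in E. coli from a tricistronic vector, with a 6×His-tag on only one chain, purified by IMAC and then SEC. Oligomeric state and purity determined by online buffer-exchange native mass spectrometry with heated electrospray at ~4 kV.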

[2] = molecular target: T2, DHT08 chain C; experiment: as above
T2 chain: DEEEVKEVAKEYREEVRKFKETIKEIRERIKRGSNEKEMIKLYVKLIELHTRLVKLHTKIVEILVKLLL
Method in brief: as §1

[3] = molecular target: T3, DHT09 chain B; experiment: as above
T3 chain: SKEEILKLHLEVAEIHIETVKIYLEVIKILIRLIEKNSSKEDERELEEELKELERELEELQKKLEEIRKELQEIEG
Method in brief: as §1

[4] = molecular target: T4, DHT09 chain C; experiment: as above
T4 chain: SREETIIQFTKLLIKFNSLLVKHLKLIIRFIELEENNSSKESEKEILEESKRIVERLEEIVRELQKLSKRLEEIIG
Method in brief: as §1

[5] = molecular target: T5, DHT10 chain C; experiment: as above
T5 chain: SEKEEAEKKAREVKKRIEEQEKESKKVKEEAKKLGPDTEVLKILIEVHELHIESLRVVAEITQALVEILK
Method in brief: as §1

[6] = molecular target: T6, DHT10 chain B; experiment: as above
T6 chain: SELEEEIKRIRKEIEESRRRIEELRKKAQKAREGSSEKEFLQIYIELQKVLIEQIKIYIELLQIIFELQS
Method in brief: as §1

[7] = molecular target: T7, DHT03_variant_AB-1 chain B; experiment: native MS; loop-connectivity variant of DHT03, AB heterodimer
T7 chain: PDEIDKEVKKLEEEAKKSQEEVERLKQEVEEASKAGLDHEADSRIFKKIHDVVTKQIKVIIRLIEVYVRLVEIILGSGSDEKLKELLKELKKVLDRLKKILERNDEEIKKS

[8] = molecular target: T8, DHT03_variant_AB-2 chain B; experiment: as above
T8 chain: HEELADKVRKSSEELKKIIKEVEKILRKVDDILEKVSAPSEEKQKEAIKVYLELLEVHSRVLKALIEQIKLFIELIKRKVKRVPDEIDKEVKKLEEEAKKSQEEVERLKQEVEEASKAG

[9] = molecular target: T9, DHT03_variant_AB-3 chain B; experiment: as above
T9 chain: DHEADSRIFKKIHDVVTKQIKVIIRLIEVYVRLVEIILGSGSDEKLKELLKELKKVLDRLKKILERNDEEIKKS

[10] = molecular target: T10, DHT03_variant_AB-4 chain B; experiment: as above
T10 chain: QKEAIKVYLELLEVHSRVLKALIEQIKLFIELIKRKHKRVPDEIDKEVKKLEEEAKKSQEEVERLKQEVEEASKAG

[11] = molecular target: T11, DHT03_variant_ABC-2 chain B; experiment: native MS; loop-connectivity variant of DHT03, chains of one ABC heterotrimer
T11 chain: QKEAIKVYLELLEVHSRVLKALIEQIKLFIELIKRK

[12] = molecular target: T12, DHT03_variant_ABC-2 chain C; experiment: as above
T12 chain: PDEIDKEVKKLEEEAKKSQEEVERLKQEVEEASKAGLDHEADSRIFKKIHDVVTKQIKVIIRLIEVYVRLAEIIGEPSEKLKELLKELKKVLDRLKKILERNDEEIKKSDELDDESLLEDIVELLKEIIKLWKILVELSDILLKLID

[13] = molecular target: T13, DHT03_variant_ABCD-1 chain D; experiment: native MS; loop-connectivity variant of DHT03, chains of one ABCD heterotetramer
T13 chain: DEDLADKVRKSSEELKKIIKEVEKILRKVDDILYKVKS

[14] = molecular target: T14, DHT03 chain C (SEQ ID NO: 59); experiment: tricistronic expression, SEC, native MS; chains of one ABC heterotrimer
T14 chain: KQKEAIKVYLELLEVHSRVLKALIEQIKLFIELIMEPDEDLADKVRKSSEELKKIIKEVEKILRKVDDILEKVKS
Text: Genes encoding 85 heterotrimers in a tricistronic expression vector were obtained, and the proteins were expressed in E. coli and purified via IMAC with only one chain having the 6×His-tag. Nine of the designs (FIG. 3a) had monodisperse SEC peaks (FIG. 3b), were almost exclusively ABC by nMS, and had good SAXS fits to the design models (Table 7). […] Eight of the designs are parallel heterotrimers, while DHTO9 is an antiparallel heterotrimer. […] For 3 other designs, only the ABC heterotrimer was determined to form by nMS (when the respective SEC fraction was analyzed) but the heterotrimer SEC peak was preceded by soluble aggregate that would make building with these constructs difficult downstream. We explored the dependence of cooperativity on connectivity between the three chains by changing the positions of the loops across different helices in DHT03, while keeping the rest of the interface intact. […] The ability to sustain alternate loop closures increases the number of heteromeric building blocks available for future nanostructure assembly applications and may enable rigid fusion of functional domains to the different termini available.
Samples were analyzed by online buffer exchange native mass spectrometry (nMS) to evaluate sample purity and accurately determine oligomeric states⁴². […]

B1: DHT08 chain A (designed binder)
chain: SKEEIEKELKKLKKELEELKREIEKSTKKLEEVRGSNSEKELIQIIKEQIEISERLLEISTRLLEIIIKLLG
binding result [1]: binds
binding result [2]: binds

B2: DHT09 chain A (designed binder)
chain: SEDEDLIRSVRVIQKSVEIILEMVKIIQELLKSTSEEELKELLKKLKRLIEKLEELLRQYEELLKKIKG
binding result [3]: binds
binding result [4]: binds

B3: DHT10 chain A (designed binder)
chain: SEEEELKKLQEEIKKLKKQVERLEKESKELEKRLEKSPSEEIAKELLRITAELVEISEELAEATKRLLEIAG
binding result [5]: binds
binding result [6]: binds

B4: DHT03_variant_AB-1 chain A (designed binder)
chain: DESLLEDIVELLKEIIKLWKILVELSDILLKLIGGDDKVRKSSEELKKIIKEVEKILRKVDDILYKVSAPSEEKQKEAIKVYLELLEVHSRVLKALIEQIKLFIELIKR
binding result [7]: binds

B5: DHT03_variant_AB-2 chain A (designed binder)
chain: DHEADSRIFKKIHDVVTKQIKVIIRLIEVYVRLVEIILGSGSDEKLKELLKELKKVLDRLKKILERNDEEIKKSDELDDESLLEDIVELLKEIIKLWKILVELSDILLKLID
binding result [8]: binds

Now from value to binder:

binding result [9]: binds
B6: DHT03_variant_AB-3 chain A (designed binder)
chain: DESLLEDIVELLKEIIKLWKILVELSDILLKLIGGDDKVRKSSEELKKIIKEVEKILRKVDDILYKVSAPSEEKQKEAIKVYLELLEVHSRVLKALIEQIKLFIELIKRKHKRVPDEIDKEVKKLEEEAKKSQEEVERLKQEVEEASKAG

binding result [10]: binds
B7: DHT03_variant_AB-4 chain A (designed binder)
chain: DHEADSRIFKKIHDVVTKQIKVIIRLIEVYVRLVEIILGSGSDEKLKELLKELKKVLDRLKKILERNDEEIKKSDELDDESLLEDIVELLKEIIKLWKILVELSDILLKLIGGDDKVRKSSEELKKIIKEVEKILRKVDDILYKVS

binding result [11]: binds
binding result [12]: binds
Binder: HEELADEVRKSSEELKKIIEEVEKILRKVDDILYKVG (designed binder) [DHT03_variant_ABC-2 chain A]

binding result [13]: binds
binding result [14]: binds
B8: DHT03 chain A (designed binder)
chain: PEEEKLKELLKELKKVLDRLKKILERNDEEIKKSDELDDESLLEDIVELLKEIIKLWKILVELSDILLKLIS
